Reference: patent US11814447B2, “Peptide ligands for binding to EphA2” (BICYCLERD LIMITED, priority 2018, dated 2023)
Starred links: 1 amine or outer side, 2 acyl side, 3 side chain; linkers in the order of their positions; H or OH if unused. Positions of bridges follow the written chain, without caps; N, C: chain ends. Non-standard residues stand in square brackets, D forms with d. Primed or numbered codes have the meaning given here. No end group written: not given here. TBMB′ = 1,3,5-tris(bromomethyl)benzene, 1,3,5-tris(methylene)benzene core, three thioethers to Cys; 4FlPro = 4-fluoropyrrolidine-2-carboxylic acid (4-fluoroproline); TATA = O=C(CC[*:1])N1CN(C(=O)CC[*:2])CN(C(=O)CC[*:3])C1; Phe(3,4-Cl2) = N[C@@H](Cc1ccc(Cl)c(Cl)c1)C(=O)O; Bip = N[C@@H](Cc1ccc(-c2ccccc2)cc1)C(=O)O; Phe(4-Br) = N[C@@H](Cc1ccc(Br)cc1)C(=O)O; 1Nal = N[C@@H](Cc1cccc2ccccc12)C(=O)O; 2Nal = N[C@@H](Cc1ccc2ccccc2c1)C(=O)O; TBMB = c1c(C[*:1])cc(C[*:3])cc1C[*:2]; Hyp = O=C(O)[C@@H]1C[C@@H](O)CN1; 3Pal = N[C@@H](Cc1cccnc1)C(=O)O; Phg = N[C@H](C(=O)O)c1ccccc1; Pip = O=C(O)[C@@H]1CCCCN1; Aze = O=C(O)[C@@H]1CCN1; Aib = CC(C)(N)C(=O)O; Sar = CNCC(=O)O

B1: Bicycle Compound Number 74 (TATA scaffold), Ac-CPLVNPLCLHPGWTCLHG (peptide)
peptide: Ac-CPLVNPLCLHPGWTCLHG
modifications: linker 1-8-15 via TATA
B2: Bicycle Compound Number 42 (TBMB scaffold) (peptide)
peptide: ACPWGPAWCPVRDTNCA
modifications: linker 2-9-16 via TBMB
notes: also called Compound 42
B3: Bicycle Compound Number 46 (TBMB scaffold) (peptide)
peptide: ACPWGPMWCPVNRPGCA
modifications: linker 2-9-16 via TBMB (inferred)
notes: also called Compound 46
B4: Bicycle Compound Number 30 (TBMB scaffold) (peptide)
peptide: ACMNDWLCQLGWTCA
modifications: linker 2-8-14 via TBMB
notes: also called Compound 30
B5: Bicycle Compound Number 24 (TBMB scaffold) (peptide)
peptide: ACMNDWLCSLGWTCA
modifications: linker 2-8-14 via TBMB
notes: also called Compound 24
B6: Bicycle Compound Number 88 (TBMB scaffold) (peptide)
peptide: [Sar][Sar]ACPWGP[Bip]WCPVNRPGC
modifications: linker 4-11-18 via TBMB′
notes: also called Compound 88
B7: Bicycle Compound Number 98 (TBMB scaffold) (peptide)
peptide: [Sar][Sar]ACPWGPFWC[Hyp]VNRPGC
modifications: linker 4-11-18 via TBMB′
notes: also called Compound 98
B8: Bicycle Compound Number 33 (TBMB scaffold) (peptide)
peptide: ACRVSPEYCPFGPVWCA
modifications: linker 2-9-16 via TBMB
notes: also called Compound 33
B9: Bicycle Compound Number 38 (TBMB scaffold) (peptide)
peptide: ACRVSPEYCPFGPYWCA
modifications: linker 2-9-16 via TBMB
notes: also called Compound 38
B10: Bicycle Compound Number 37 (TBMB scaffold) (peptide)
peptide: ACRVSPEYCPFGPEWCA
modifications: linker 2-9-16 via TBMB
notes: also called Compound 37
B11: Bicycle Compound Number 36 (TBMB scaffold) (peptide)
peptide: ACRVSPEYCPFGPSWCA
modifications: linker 2-9-16 via TBMB
notes: also called Compound 36
B12: Bicycle Compound Number 74 (TBMB scaffold) (peptide)
peptide: [Sar][Sar]AC[Aib]WGPFWCPVNRPGC
modifications: linker 4-11-18 via TBMB
notes: also called Compound 74
B13: Bicycle Compound Number 108 (TBMB scaffold) (peptide)
peptide: [Sar][Sar]ACPWGPFWCPVNR[Pip]GC
modifications: linker 4-11-18 via TBMB
B14: Bicycle Compound Number 90 (TBMB scaffold) (peptide)
peptide: [Sar][Sar]ACPWGP[Phe(3,4-Cl2)]WCPVNRPGC
modifications: linker 4-11-18 via TBMB′
notes: also called Compound 90
B15: Bicycle Compound Number 34 (TBMB scaffold) (peptide)
peptide: ACRVSPEYCPFGPVWCAGAAA
modifications: linker 2-9-16 via TBMB
notes: also called Compound 34
B16: Bicycle Compound Number 97 (TBMB scaffold) (peptide)
peptide: [Sar][Sar]ACPWGPFWC[Aze]VNRPGC
modifications: linker 4-11-18 via TBMB′
notes: also called Compound 97
B17: Bicycle Compound Number 109 (TBMB scaffold) (peptide)
peptide: [Sar][Sar]ACPWGPFWCPVNR[4FlPro]GC
modifications: linker 4-11-18 via TBMB
B18: Bicycle Compound Number 79 (TATA scaffold), ACPLVNPLCLHPG(2Nal)TCLHG (peptide)
peptide: ACPLVNPLCLHPG[2Nal]TCLHG
modifications: linker 2-9-16 via TATA
B19: Bicycle Compound Number 77 (TBMB scaffold) (peptide)
peptide: [Sar][Sar]ACP[2Nal]GPFWCPVNRPGC
modifications: linker 4-11-18 via TBMB
notes: also called Compound 77
B20: Bicycle Compound Number 94 (TATA scaffold), ACPLVNPLCLTPGWTCTNT (peptide)
peptide: ACPLVNPLCLTPGWTCTNT
modifications: linker 2-9-16 via TATA
B21: Bicycle Compound Number 92 (TBMB scaffold) (peptide)
peptide: [Sar][Sar]ACPWGP[3Pal]WCPVNRPGC
modifications: linker 4-11-18 via TBMB′
notes: also called Compound 92
B22: Bicycle Compound Number 91 (TBMB scaffold) (peptide)
peptide: [Sar][Sar]ACPWGPYWCPVNRPGC
modifications: linker 4-11-18 via TBMB′
notes: also called Compound 91
B23: Bicycle Compound Number 105 (TBMB scaffold) (peptide)
peptide: [Sar][Sar]ACPWGPFWCPVNR[dA]GC
modifications: linker 4-11-18 via TBMB
B24: Bicycle Compound Number 101 (TBMB scaffold) (peptide)
peptide: [Sar][Sar]ACPWGPFWCPVARPGC
modifications: linker 4-11-18 via TBMB
B25: Bicycle Compound Number 93 (TBMB scaffold) (peptide)
peptide: [Sar][Sar]ACPWGP[Phg]WCPVNRPGC
modifications: linker 4-11-18 via TBMB′
notes: also called Compound 93
B26: Bicycle Compound Number 82 (TBMB scaffold) (peptide)
peptide: [Sar][Sar]ACPWG[Pip]FWCPVNRPGC
modifications: linker 4-11-18 via TBMB′
notes: also called Compound 82
B27: Bicycle Compound Number 85 (TBMB scaffold) (peptide)
peptide: [Sar][Sar]ACPWGP[Phe(4-Br)]WCPVNRPGC
modifications: linker 4-11-18 via TBMB′
notes: also called Compound 85
B28: Bicycle Compound Number 88 (TATA scaffold), Ac-CPLVNPLCLHPGWSCRGQ (peptide)
peptide: Ac-CPLVNPLCLHPGWSCRGQ
modifications: linker 1-8-15 via TATA
B29: Bicycle Compound Number 106 (TBMB scaffold) (peptide)
peptide: [Sar][Sar]ACPWGPFWCPVNR[Aze]GC
modifications: linker 4-11-18 via TBMB
B30: Bicycle Compound Number 93 (TATA scaffold), ACPLVNPLCLHPG(2Nal)SCRGQ (peptide)
peptide: ACPLVNPLCLHPG[2Nal]SCRGQ
modifications: linker 2-9-16 via TATA
B31: Bicycle Compound Number 94 (TBMB scaffold) (peptide)
peptide: [Sar][Sar]ACPWGP[1Nal]WCPVNRPGC
modifications: linker 4-11-18 via TBMB′
notes: also called Compound 94
B32: Bicycle Compound Number 99 (TBMB scaffold) (peptide)
peptide: [Sar][Sar]ACPWGPFWC[4FlPro]VNRPGC
modifications: linker 4-11-18 via TBMB
notes: also called Compound 99
B33: Bicycle Compound Number 75 (TATA scaffold), (β-Ala)-Sar10-ACPLVNPLCLHPGWTCLHG (peptide)
peptide: XXXXXXXXXXXACPLVNPLCLHPGWTCLHG
modifications: N-terminal (β-Ala)-Sar10; 3 Cys thioether-linked to TATA scaffold
B34: Bicycle Compound Number 114 (TBMB scaffold) (peptide)
peptide: [Sar][Sar]AC[Aib]WGPF[1Nal]CPVNRPGC
modifications: linker 4-11-18 via TBMB
B35: Bicycle Compound Number 81 (TATA scaffold), TPRCPLVNPLCLMPGWTCA (peptide)
peptide: TPRCPLVNPLCLMPGWTCA
modifications: linker 4-11-18 via TATA
B36: Bicycle Compound Number 85 (TATA scaffold), ACPLVNPLCLEPGWTCAKR (peptide)
peptide: ACPLVNPLCLEPGWTCAKR
modifications: linker 2-9-16 via TATA
B37: Bicycle Compound Number 95 (TBMB scaffold) (peptide)
peptide: [Sar][Sar]ACPWGP[2Nal]WCPVNRPGC
modifications: linker 4-11-18 via TBMB′
notes: also called Compound 95
B38: Bicycle Compound Number 62 (TBMB scaffold) (peptide)
peptide: ARDDPCPWGPFWCPVNRPGCA
modifications: linker 6-13-20 via TBMB (inferred)
notes: also called Compound 62
B39: Bicycle Compound Number 119 (TBMB scaffold) (peptide)
peptide: [Sar][Sar]ACP[1Nal]G[Aib]FWCPVNRPGC
modifications: linker 4-11-18 via TBMB

Tests used:
Human EphA2 (Ecto) = biological target: T1, Human EphA2 (Ecto) (Human, UniProt P29317 24-537); assay: FP competition; tracer Reference Compound C
T1 construct: extracellular domain; in-house)
Description: (§1) Peptides without a fluorescent tag were tested in competition with a peptide with a fluorescent tag and a known Kd (Table 2). Peptides were diluted to an appropriate concentration in assay buffer as described in the direct binding assay with a maximum of 5% DMSO, then serially diluted 1 in 2. […] Measurements were conducted as for the direct binding assay, however the gain was determined prior to the first measurement. Data analysis was in Systat Sigmaplot version 12.0 where the mP values were fit to a user defined cubic equation to generate a Ki value: […]

[1] = biological target: T2, Human EphA2 (Ecto), C-terminal polyHis (Human, UniProt P29317 24-537); assay: fluorescence polarisation competition; competitor fluorescent Compound 66
T2 construct: extracellular domain; also called EPH receptor A2; ephrin type-A receptor 2
Description: as §1

T2 sequence (P29317 24-537): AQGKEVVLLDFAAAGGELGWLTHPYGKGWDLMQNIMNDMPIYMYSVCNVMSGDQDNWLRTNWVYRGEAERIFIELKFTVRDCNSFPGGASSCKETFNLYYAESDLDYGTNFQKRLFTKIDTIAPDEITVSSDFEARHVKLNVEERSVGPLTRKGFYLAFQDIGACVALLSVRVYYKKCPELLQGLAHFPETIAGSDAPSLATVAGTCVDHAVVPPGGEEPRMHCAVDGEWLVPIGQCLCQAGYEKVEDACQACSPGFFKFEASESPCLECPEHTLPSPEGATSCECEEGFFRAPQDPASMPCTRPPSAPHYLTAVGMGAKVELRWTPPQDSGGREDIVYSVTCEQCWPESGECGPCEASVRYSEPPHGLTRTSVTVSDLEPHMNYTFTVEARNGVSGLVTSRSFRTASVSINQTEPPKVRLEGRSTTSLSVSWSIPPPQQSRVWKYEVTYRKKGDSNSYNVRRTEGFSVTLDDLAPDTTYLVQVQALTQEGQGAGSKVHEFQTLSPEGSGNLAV
T1 sequence (P29317 24-537): as above

Row | Binder | Ki (Human EphA2 (Ecto)) | Ki [1]
1 | B1 | 1.76 nM | –
2 | B2 | – | 316 nM
3 | B3 | – | 95.8 nM
4 | B4 | – | 56 nM
5 | B5 | – | 82.3 nM
6 | B6 | – | 183 nM
7 | B7 | – | 163 nM
8 | B8 | – | 78.5 nM
9 | B9 | – | 26.5 nM
10 | B10 | – | 61.2 nM
11 | B11 | – | 40.5 nM
12 | B12 | – | 139 nM
13 | B13 | – | 374 nM
14 | B14 | – | 361 nM
15 | B15 | – | 77.4 nM
16 | B16 | – | 286 nM
17 | B17 | – | 184 nM
18 | B18 | 162 nM | –
19 | B19 | – | 458 nM
20 | B20 | 13.2 nM | –

Row | Binder | Ki (Human EphA2 (Ecto)) | Ki [1]
21 | B21 | – | 165 nM
22 | B22 | – | 138 nM
23 | B23 | – | 471 nM
24 | B24 | – | 265 nM
25 | B25 | – | 412 nM
26 | B26 | – | 497 nM
27 | B27 | – | 174 nM
28 | B28 | 1.64 nM | –
29 | B29 | – | 155 nM
30 | B30 | 228 nM | –
31 | B31 | – | 196 nM
32 | B32 | – | 270 nM
33 | B33 | 2.48 nM | –
34 | B34 | – | 43 nM
35 | B35 | 9.8 nM | –
36 | B36 | 10.9 nM | –
37 | B37 | – | 362 nM
38 | B38 | – | 28 nM
39 | B39 | – | 8.4 nM
